Numbered stars: 1 amine (or outer) side, 2 acyl side, 3 side chain; on linkers, the order of the positions; unused ones are H or OH. Bridge positions count the residues as written; N and C are the ends. Side chains are listed from the residue outwards. Ends that are not written are not given here. * marks the point of attachment. C20 diacid = O=C(O)CCCCCCCCCCCCCCCCCCC(=O)*; γGlu = O=C(O)[C@H](CCC(=O)[*:2])N[*:1]; AEEA = NCCOCCOCC(=O)O

T1: rat calcitonin receptor (rat, UniProt P32214 25-516)
T1 construct: whole, on cells; Membranes prepared from transiently transfected BHK tk'ts 13 cells (Assay VIII); also called rCTR; rCT
T1 sequence (looked up): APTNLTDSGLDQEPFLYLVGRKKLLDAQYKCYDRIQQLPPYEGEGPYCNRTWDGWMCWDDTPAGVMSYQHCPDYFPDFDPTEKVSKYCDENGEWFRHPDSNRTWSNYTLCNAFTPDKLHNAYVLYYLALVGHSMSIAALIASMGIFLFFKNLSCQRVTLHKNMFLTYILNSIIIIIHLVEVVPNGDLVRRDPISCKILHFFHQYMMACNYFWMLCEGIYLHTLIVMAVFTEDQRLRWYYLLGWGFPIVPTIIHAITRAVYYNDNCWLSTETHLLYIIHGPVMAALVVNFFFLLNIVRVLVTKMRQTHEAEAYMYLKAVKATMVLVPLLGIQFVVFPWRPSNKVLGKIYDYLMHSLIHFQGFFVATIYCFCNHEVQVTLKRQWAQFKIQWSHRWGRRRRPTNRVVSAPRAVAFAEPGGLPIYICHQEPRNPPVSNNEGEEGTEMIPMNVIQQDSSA

T2: rat amylin receptor (rat calcitonin receptor + rat RAMP 3) (rat, UniProt P32214 25-516; Q9JJ73 23-147)
T2 construct: whole, on cells; Membranes prepared from transiently transfected BHK tk'ts 13 cells (Assay VI); also called rAmylin-R; rAmylin
T2 sequence (looked up) 1: T1 sequence (looked up)
T2 sequence (looked up) 2: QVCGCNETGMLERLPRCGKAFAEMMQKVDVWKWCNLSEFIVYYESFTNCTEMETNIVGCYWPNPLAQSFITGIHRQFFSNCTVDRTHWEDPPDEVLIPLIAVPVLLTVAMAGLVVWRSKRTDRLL

T3: human calcitonin receptor (human, UniProt P30988 25-474)
T3 construct: whole, on cells; Membranes prepared from a stably transfected BHK cell line (Assay VII); also called hCTR; hCT
T3 sequence (looked up): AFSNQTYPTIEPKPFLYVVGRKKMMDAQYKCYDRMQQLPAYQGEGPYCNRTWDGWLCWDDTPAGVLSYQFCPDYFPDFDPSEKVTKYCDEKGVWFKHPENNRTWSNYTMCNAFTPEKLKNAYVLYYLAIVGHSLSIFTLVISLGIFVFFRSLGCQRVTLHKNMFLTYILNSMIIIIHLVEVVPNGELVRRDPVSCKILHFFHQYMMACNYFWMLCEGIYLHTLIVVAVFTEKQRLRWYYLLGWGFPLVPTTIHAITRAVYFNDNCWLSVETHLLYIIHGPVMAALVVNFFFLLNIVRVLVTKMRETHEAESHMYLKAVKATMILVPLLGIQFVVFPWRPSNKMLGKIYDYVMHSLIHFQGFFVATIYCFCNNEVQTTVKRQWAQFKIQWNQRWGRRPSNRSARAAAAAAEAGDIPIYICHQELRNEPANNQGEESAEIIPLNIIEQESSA

B1: N^ε1-[2-[2-[2-[[(4S)-4-carboxy-4-(19-carboxynonadecanoylamino)butanoyl]amino]ethoxy]ethoxy]acetyl]-[Arg17,Pro21,Pro27,Pro29,Pro34]-h-amylin (peptide)
peptide: K([AEEA-γGlu-C20 diacid])CNTATCATQRLANFLRHSSPNFGAIPSPTNVGPNTY-NH2
modifications: disulfide 2-7; N-terminus assumed
SMILES: CC[C@H](C)[C@H](NC(=O)[C@H](C)NC(=O)CNC(=O)[C@H](Cc1ccccc1)NC(=O)[C@H](CC(N)=O)NC(=O)[C@@H]1CCCN1C(=O)[C@H](CO)NC(=O)[C@H](CO)NC(=O)[C@H](Cc1c[nH]cn1)NC(=O)[C@H](CCCNC(=N)N)NC(=O)[C@H](CC(C)C)NC(=O)[C@H](Cc1ccccc1)NC(=O)[C@H](CC(N)=O)NC(=O)[C@H](C)NC(=O)[C@H](CC(C)C)NC(=O)[C@H](CCCNC(=N)N)NC(=O)[C@H](CCC(N)=O)NC(=O)[C@@H](NC(=O)[C@H](C)NC(=O)[C@@H]1CSSC[C@H](NC(=O)[C@@H](N)CCCCNC(=O)COCCOCCNC(=O)CC[C@H](NC(=O)CCCCCCCCCCCCCCCCCCC(=O)O)C(=O)O)C(=O)N[C@@H](CC(N)=O)C(=O)N[C@@H]([C@@H](C)O)C(=O)N[C@@H](C)C(=O)N[C@@H]([C@@H](C)O)C(=O)N1)[C@@H](C)O)C(=O)N1CCC[C@H]1C(=O)N[C@@H](CO)C(=O)N1CCC[C@H]1C(=O)N[C@H](C(=O)N[C@@H](CC(N)=O)C(=O)N[C@H](C(=O)NCC(=O)N1CCC[C@H]1C(=O)N[C@@H](CC(N)=O)C(=O)N[C@H](C(=O)N[C@@H](Cc1ccc(O)cc1)C(N)=O)[C@@H](C)O)C(C)C)[C@@H](C)O
notes: Analogue of human amylin; also called compound 56
B2: N^ε1-[2-[2-[2-[[(4S)-4-carboxy-4-(19-carboxynonadecanoylamino)butanoyl]amino]ethoxy]ethoxy]acetyl]-[Arg17,Pro21,Pro27,Pro31,His35]-h-amylin (peptide)
peptide: K([AEEA-γGlu-C20 diacid])CNTATCATQRLANFLRHSSPNFGAIPSSTPVGSHTY-NH2
modifications: disulfide 2-7; N-terminus assumed
SMILES: CC[C@H](C)[C@H](NC(=O)[C@H](C)NC(=O)CNC(=O)[C@H](Cc1ccccc1)NC(=O)[C@H](CC(N)=O)NC(=O)[C@@H]1CCCN1C(=O)[C@H](CO)NC(=O)[C@H](CO)NC(=O)[C@H](Cc1c[nH]cn1)NC(=O)[C@H](CCCNC(=N)N)NC(=O)[C@H](CC(C)C)NC(=O)[C@H](Cc1ccccc1)NC(=O)[C@H](CC(N)=O)NC(=O)[C@H](C)NC(=O)[C@H](CC(C)C)NC(=O)[C@H](CCCNC(=N)N)NC(=O)[C@H](CCC(N)=O)NC(=O)[C@@H](NC(=O)[C@H](C)NC(=O)[C@@H]1CSSC[C@H](NC(=O)[C@@H](N)CCCCNC(=O)COCCOCCNC(=O)CC[C@H](NC(=O)CCCCCCCCCCCCCCCCCCC(=O)O)C(=O)O)C(=O)N[C@@H](CC(N)=O)C(=O)N[C@@H]([C@@H](C)O)C(=O)N[C@@H](C)C(=O)N[C@@H]([C@@H](C)O)C(=O)N1)[C@@H](C)O)C(=O)N1CCC[C@H]1C(=O)N[C@@H](CO)C(=O)N[C@@H](CO)C(=O)N[C@H](C(=O)N1CCC[C@H]1C(=O)N[C@H](C(=O)NCC(=O)N[C@@H](CO)C(=O)N[C@@H](Cc1c[nH]cn1)C(=O)N[C@H](C(=O)N[C@@H](Cc1ccc(O)cc1)C(N)=O)[C@@H](C)O)C(C)C)[C@@H](C)O
notes: Analogue of human amylin; also called compound 57
B3: N^ε1-[2-[2-[2-[[(4S)-4-carboxy-4-(19-carboxynonadecanoylamino)butanoyl]amino]ethoxy]ethoxy]acetyl]-[Gly14,Arg17,Pro21,Pro27,Pro31]-h-amylin (peptide)
peptide: K([AEEA-γGlu-C20 diacid])CNTATCATQRLAGFLRHSSPNFGAIPSSTPVGSNTY-NH2
modifications: disulfide 2-7; N-terminus assumed
SMILES: CC[C@H](C)[C@H](NC(=O)[C@H](C)NC(=O)CNC(=O)[C@H](Cc1ccccc1)NC(=O)[C@H](CC(N)=O)NC(=O)[C@@H]1CCCN1C(=O)[C@H](CO)NC(=O)[C@H](CO)NC(=O)[C@H](Cc1c[nH]cn1)NC(=O)[C@H](CCCNC(=N)N)NC(=O)[C@H](CC(C)C)NC(=O)[C@H](Cc1ccccc1)NC(=O)CNC(=O)[C@H](C)NC(=O)[C@H](CC(C)C)NC(=O)[C@H](CCCNC(=N)N)NC(=O)[C@H](CCC(N)=O)NC(=O)[C@@H](NC(=O)[C@H](C)NC(=O)[C@@H]1CSSC[C@H](NC(=O)[C@@H](N)CCCCNC(=O)COCCOCCNC(=O)CC[C@H](NC(=O)CCCCCCCCCCCCCCCCCCC(=O)O)C(=O)O)C(=O)N[C@@H](CC(N)=O)C(=O)N[C@@H]([C@@H](C)O)C(=O)N[C@@H](C)C(=O)N[C@@H]([C@@H](C)O)C(=O)N1)[C@@H](C)O)C(=O)N1CCC[C@H]1C(=O)N[C@@H](CO)C(=O)N[C@@H](CO)C(=O)N[C@H](C(=O)N1CCC[C@H]1C(=O)N[C@H](C(=O)NCC(=O)N[C@@H](CO)C(=O)N[C@@H](CC(N)=O)C(=O)N[C@H](C(=O)N[C@@H](Cc1ccc(O)cc1)C(N)=O)[C@@H](C)O)C(C)C)[C@@H](C)O
notes: Analogue of human amylin; also called compound 71
B4: N^ε1-[2-[2-[2-[[(4S)-4-carboxy-4-(19-carboxynonadecanoylamino)butanoyl]amino]ethoxy]ethoxy]acetyl]-[His14,Arg17,Pro21,Pro27,Arg34]-h-amylin (peptide)
peptide: K([AEEA-γGlu-C20 diacid])CNTATCATQRLAHFLRHSSPNFGAIPSSTNVGRNTY-NH2
modifications: disulfide 2-7; N-terminus assumed
SMILES: CC[C@H](C)[C@H](NC(=O)[C@H](C)NC(=O)CNC(=O)[C@H](Cc1ccccc1)NC(=O)[C@H](CC(N)=O)NC(=O)[C@@H]1CCCN1C(=O)[C@H](CO)NC(=O)[C@H](CO)NC(=O)[C@H](Cc1c[nH]cn1)NC(=O)[C@H](CCCNC(=N)N)NC(=O)[C@H](CC(C)C)NC(=O)[C@H](Cc1ccccc1)NC(=O)[C@H](Cc1c[nH]cn1)NC(=O)[C@H](C)NC(=O)[C@H](CC(C)C)NC(=O)[C@H](CCCNC(=N)N)NC(=O)[C@H](CCC(N)=O)NC(=O)[C@@H](NC(=O)[C@H](C)NC(=O)[C@@H]1CSSC[C@H](NC(=O)[C@@H](N)CCCCNC(=O)COCCOCCNC(=O)CC[C@H](NC(=O)CCCCCCCCCCCCCCCCCCC(=O)O)C(=O)O)C(=O)N[C@@H](CC(N)=O)C(=O)N[C@@H]([C@@H](C)O)C(=O)N[C@@H](C)C(=O)N[C@@H]([C@@H](C)O)C(=O)N1)[C@@H](C)O)C(=O)N1CCC[C@H]1C(=O)N[C@@H](CO)C(=O)N[C@@H](CO)C(=O)N[C@H](C(=O)N[C@@H](CC(N)=O)C(=O)N[C@H](C(=O)NCC(=O)N[C@@H](CCCNC(=N)N)C(=O)N[C@@H](CC(N)=O)C(=O)N[C@H](C(=O)N[C@@H](Cc1ccc(O)cc1)C(N)=O)[C@@H](C)O)C(C)C)[C@@H](C)O
notes: Analogue of human amylin; also called compound 84
B5: N^ε1-[2-[2-[2-[[(4S)-4-carboxy-4-(19-carboxynonadecanoylamino)butanoyl]amino]ethoxy]ethoxy]acetyl]-[Arg17,Pro21,Pro27,Pro34,His35]-h-amylin (peptide)
peptide: K([AEEA-γGlu-C20 diacid])CNTATCATQRLANFLRHSSPNFGAIPSSTNVGPHTY-NH2
modifications: disulfide 2-7; N-terminus assumed
SMILES: CC[C@H](C)[C@H](NC(=O)[C@H](C)NC(=O)CNC(=O)[C@H](Cc1ccccc1)NC(=O)[C@H](CC(N)=O)NC(=O)[C@@H]1CCCN1C(=O)[C@H](CO)NC(=O)[C@H](CO)NC(=O)[C@H](Cc1c[nH]cn1)NC(=O)[C@H](CCCNC(=N)N)NC(=O)[C@H](CC(C)C)NC(=O)[C@H](Cc1ccccc1)NC(=O)[C@H](CC(N)=O)NC(=O)[C@H](C)NC(=O)[C@H](CC(C)C)NC(=O)[C@H](CCCNC(=N)N)NC(=O)[C@H](CCC(N)=O)NC(=O)[C@@H](NC(=O)[C@H](C)NC(=O)[C@@H]1CSSC[C@H](NC(=O)[C@@H](N)CCCCNC(=O)COCCOCCNC(=O)CC[C@H](NC(=O)CCCCCCCCCCCCCCCCCCC(=O)O)C(=O)O)C(=O)N[C@@H](CC(N)=O)C(=O)N[C@@H]([C@@H](C)O)C(=O)N[C@@H](C)C(=O)N[C@@H]([C@@H](C)O)C(=O)N1)[C@@H](C)O)C(=O)N1CCC[C@H]1C(=O)N[C@@H](CO)C(=O)N[C@@H](CO)C(=O)N[C@H](C(=O)N[C@@H](CC(N)=O)C(=O)N[C@H](C(=O)NCC(=O)N1CCC[C@H]1C(=O)N[C@@H](Cc1c[nH]cn1)C(=O)N[C@H](C(=O)N[C@@H](Cc1ccc(O)cc1)C(N)=O)[C@@H](C)O)C(C)C)[C@@H](C)O
notes: Analogue of human amylin; also called compound 58

The target of one assay is T1, rat calcitonin receptor. The experiment in a line: SPA competition vs 125I-calcitonin, membranes of BHK cells with rat calcitonin receptor (Assay VIII).
On to B1, for which the IC50 (as a rule, the concentration needed to halve the response being measured) is 5.26 nM.
The same measure, in the same setting: next, B2: 24.4 nM; B3: 44.8 nM.
Still for that read-out and setting: next, B4: 477 nM; B5: 10.3 nM.

The next assay addresses T1, rat calcitonin receptor. The experiment in a line: ratio of binding IC50s: rat calcitonin receptor / rat amylin receptor (reference).
Regarding B1, the “Ratio rCT/rAmylin binding” value was determined as 131.
Same read-out and setting: next, B2: 135; B3: 162.
On the same count and under the same terms, next, B4: 94.3.
Regarding B5, the “Ratio rCT/rAmylin binding” value was 76.6.

The next assay concerns the target T2, rat amylin receptor (rat calcitonin …). As to the kind of experiment: SPA competition vs 125I-rat amylin, membranes of BHK cells with rat calcitonin receptor + rat RAMP3 (Assay VI).
With B1, the IC50 worked out at 0.04 nM.
For the molecule B2, the IC50 came to 0.181 nM.
Still for that read-out and setting: next, B3: 0.276 nM; B4: 5.05 nM.
Same read-out and setting: next, B5: 0.135 nM.

Another assay concerns the target T3, human calcitonin receptor. As to the kind of experiment: ratio of binding IC50s: human calcitonin receptor / human amylin receptor (reference). In a few lines: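 Scintillation proximity competition binding on cell membranes at 35 ng/μL with SPA beads, in 50 mM Hepes pH 7.4, 1 mM CaCl2, 5 mM MgCl₂, 0.1% OA, 0.02% Tween20. Incubated 120 min at 25° C with shaking. IC₅₀ from one-site competition fit.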
For B1, the “Ratio hCT/hAmylin binding” value came out at 42.6.
Same read-out and setting: next, B2: 133.
Still for that read-out and setting: next, B3: 32; B4: 120; B5: 109.

The values above are taken from US20140087995A1 (published 2014).
